Measured values: patent publication US20050065324A1

Key:
[1] = target: recombinant human TSP fragment of ~140 kDa engineered to lack the N-terminal heparin-binding domain (human); experiment: sandwich ELISA, Ab-4 capture, Ab-8 detection; analyte at 3.125 ng/mL
[2] = target: human platelet thrombospondin (thrombospondin-1) (human) (UniProt P07996); experiment: as above
[3] = target: recombinant human TSP fragment of ~140 kDa engineered to lack the N-terminal heparin-binding domain (human); experiment: sandwich ELISA, Ab-4 capture, Ab-8 detection; analyte at 25.00 ng/mL
[4] = target: human platelet thrombospondin (thrombospondin-1) (human) (UniProt P07996); experiment: as above
[5] = target: recombinant human TSP fragment of ~140 kDa engineered to lack the N-terminal heparin-binding domain (human); experiment: sandwich ELISA, Ab-4 capture, Ab-8 detection; analyte at 200.0 ng/mL
[6] = target: human platelet thrombospondin (thrombospondin-1) (human) (UniProt P07996); experiment: as above
[7] = target: recombinant human TSP fragment of ~140 kDa engineered to lack the N-terminal heparin-binding domain (human); experiment: sandwich ELISA, Ab-4 capture, Ab-8 detection; analyte at 50.00 ng/mL
[8] = target: human platelet thrombospondin (thrombospondin-1) (human) (UniProt P07996); experiment: as above
[9] = target: recombinant human TSP fragment of ~140 kDa engineered to lack the N-terminal heparin-binding domain (human); experiment: sandwich ELISA, Ab-4 capture, Ab-8 detection; analyte at 100.0 ng/mL
[10] = target: human platelet thrombospondin (thrombospondin-1) (human) (UniProt P07996); experiment: as above
[11] = target: recombinant human TSP fragment of ~140 kDa engineered to lack the N-terminal heparin-binding domain (human); experiment: sandwich ELISA, Ab-4 capture, Ab-8 detection; analyte at 12.50 ng/mL
[12] = target: human platelet thrombospondin (thrombospondin-1) (human) (UniProt P07996); experiment: as above
[13] = target: recombinant human TSP fragment of ~140 kDa engineered to lack the N-terminal heparin-binding domain (human); experiment: sandwich ELISA, Ab-4 capture, Ab-8 detection; analyte at 6.250 ng/mL
[14] = target: human platelet thrombospondin (thrombospondin-1) (human) (UniProt P07996); experiment: as above

Chain of UniProt P07996 (P07996 19-1170 T523A): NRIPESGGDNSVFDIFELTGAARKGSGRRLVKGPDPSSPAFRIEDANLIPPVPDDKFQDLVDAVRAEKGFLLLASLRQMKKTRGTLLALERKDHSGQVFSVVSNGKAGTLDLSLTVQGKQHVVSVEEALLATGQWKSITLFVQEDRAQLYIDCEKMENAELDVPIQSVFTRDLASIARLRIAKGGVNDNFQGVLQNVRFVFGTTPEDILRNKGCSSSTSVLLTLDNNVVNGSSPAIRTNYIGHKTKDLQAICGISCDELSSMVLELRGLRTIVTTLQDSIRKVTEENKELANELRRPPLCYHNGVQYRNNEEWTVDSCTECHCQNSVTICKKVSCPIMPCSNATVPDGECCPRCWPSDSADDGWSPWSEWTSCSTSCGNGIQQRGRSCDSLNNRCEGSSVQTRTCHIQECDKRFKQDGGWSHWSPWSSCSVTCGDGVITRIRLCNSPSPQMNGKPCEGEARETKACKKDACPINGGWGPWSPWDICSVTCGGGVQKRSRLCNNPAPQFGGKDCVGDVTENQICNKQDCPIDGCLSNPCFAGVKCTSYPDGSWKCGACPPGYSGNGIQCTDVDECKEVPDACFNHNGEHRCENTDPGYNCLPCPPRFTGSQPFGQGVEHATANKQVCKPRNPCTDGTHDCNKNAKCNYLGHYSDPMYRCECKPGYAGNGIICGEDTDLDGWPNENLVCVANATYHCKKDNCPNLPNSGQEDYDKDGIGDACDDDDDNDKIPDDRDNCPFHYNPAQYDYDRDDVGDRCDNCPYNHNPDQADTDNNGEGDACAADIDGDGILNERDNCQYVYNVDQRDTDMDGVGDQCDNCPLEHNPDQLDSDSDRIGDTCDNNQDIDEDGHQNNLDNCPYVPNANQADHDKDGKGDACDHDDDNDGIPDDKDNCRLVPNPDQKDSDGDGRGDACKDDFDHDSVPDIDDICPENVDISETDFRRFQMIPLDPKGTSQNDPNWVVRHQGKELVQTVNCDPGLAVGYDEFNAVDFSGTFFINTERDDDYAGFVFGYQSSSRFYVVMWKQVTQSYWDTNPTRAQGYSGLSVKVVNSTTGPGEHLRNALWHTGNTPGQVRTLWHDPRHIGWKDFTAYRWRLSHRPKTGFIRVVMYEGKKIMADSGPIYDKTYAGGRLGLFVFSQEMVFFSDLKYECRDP

ELISA OD-450 [1]: 0.279 OD-450 | ELISA OD-450 [2]: 0.345 OD-450 | ELISA OD-450 [3]: 1.17 OD-450 | ELISA OD-450 [4]: 1.08 OD-450 | ELISA OD-450 [5]: 2.56 OD-450 | ELISA OD-450 [6]: 2.5 OD-450 | ELISA OD-450 [7]: 1.8 OD-450 | ELISA OD-450 [8]: 1.57 OD-450 | ELISA OD-450 [9]: 2.2 OD-450 | ELISA OD-450 [10]: 2.09 OD-450 | ELISA OD-450 [11]: 0.662 OD-450 | ELISA OD-450 [12]: 0.713 OD-450 | ELISA OD-450 [13]: 0.4 OD-450 | ELISA OD-450 [14]: 0.514 OD-450
Substance: TSP Ab-4 (Clone A6.1) (antibody)
